Results on 132 substances are retold here after the supplement of paper PMC12042874.

± gives the uncertainty stated by the source.

This data set in a line: amyloid nucleation score (Sup35N fusion, yeast selection) (log enrichment); library NNK3; higher = more nucleation; inactive = no reads after selection. In a few lines: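 Sup35N was fused to peptides of 20 random codons and expressed in psi-negative yeast, which were induced with 100 μM copper sulfate for 24 hours and then grown on medium lacking adenine and uracil for 7 days at 30°C. Plasmid inserts from input and output were sequenced on Illumina. The nucleation score is the DiMSum log enrichment of output over input reads, centred on the mode score of non-aggregating sequences. Sequences with under 100 input reads were left out, and random libraries had three technical output replicates.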
RCVLRW yielded an amyloid nucleation score of 1.34 ± 0.12.

Regarding RCVSMEADWVVSAEFTKDVF, the amyloid nucleation score result is “inactive”. Regarding RCYFKYP, the amyloid nucleation score was 1.32 ± 0.13. RCYKKVYLMLAVRLAPFGLG: the amyloid nucleation score entry was “inactive”. With RCYVCRTMRACMVLAAKLEP, the amyloid nucleation score result was “inactive”.

In turn, RCYVNYIRTYICAYCFAVNE displayed an amyloid nucleation score of 2.39 ± 0.074. For RDDMGLESKQDGEP the value was “inactive”; for RDFTSYGCFVASSSLDRSFL, “inactive”.

For the substance RDGFN, the amyloid nucleation score result is “inactive”. For RDIISMIVGWVLLQYLTTTY the value was -0.888 ± 1. For RDLCIPWLCRAFFPAMCVVI, the amyloid nucleation score entry is “inactive”.

In the case of RDLVPLDDRA, the amyloid nucleation score entry is “inactive”. For RDSFVFYVY the value was “inactive”; for RDSQRSVRVTAIDG, “inactive”. Take REDILLRSSFSDSHVGRLKT: the amyloid nucleation score entry was “inactive”. The value for REFPRGWLLGLLCFRLYLLE was “inactive”; that for REGRVLVWYSYYKFYTRHYF was 0.004 ± 0.72. On to REMFASPSIGTALRR, for which the amyloid nucleation score entry is “inactive”.

Consider REPVRLQNKRLPRCQRREWC, for which the amyloid nucleation score result was “inactive”.

For the substance RESVTSPILILSWEGISRCH, the amyloid nucleation score result is “inactive”. The value for REVRNWRERVCQMRVLVVMC was “inactive”; that for REWRSNDGFFGSDSGVVGHT was “inactive”.

Take RFGAGILRSSNQDSGFRVTG: the amyloid nucleation score result is “inactive”. For RFKMAYFKNTAYLFNNANSV, the amyloid nucleation score entry was “inactive”.

With RFNTDSQPAVMIVFRYNRLR, the amyloid nucleation score result was “inactive”. Regarding RFRHGDTGSTFRCWCFVS, the amyloid nucleation score result is “inactive”. In the case of RFSCCYRPLLYNQKVEWWRG, the amyloid nucleation score entry is “inactive”. In turn, RFSCEYVATLTLSGRQAVKH had an amyloid nucleation score of 0.043 ± 0.72. As to RFSGM, the amyloid nucleation score result was “inactive”.

Take RFTMWRNDHC: the amyloid nucleation score came to 0.421 ± 0.38. RFVLQ: the amyloid nucleation score result is “inactive”.

For RFWRCWAMINR, the amyloid nucleation score entry was “inactive”. Turning to RGGCQATVGNALNIRFFAQG, the amyloid nucleation score amounted to 1.72 ± 0.095.

As to RGGRTSVLLNRSMLVEK, the amyloid nucleation score result was “inactive”. For RGGTASQVFMCFKLVFRSRY the value was -0.14 ± 0.6; for RGIANCPHLCIAYLMLS, “inactive”. Turning to RGINDDSPF, the amyloid nucleation score result was “inactive”. In the case of RGLRTKVGMSVRNCEYRYVM, the amyloid nucleation score is -0.455 ± 1.1.

On to RGLVLVFVREAYRREY, for which the amyloid nucleation score worked out at 0.598 ± 0.29. Turning to RGMCV, the amyloid nucleation score result is “inactive”. As to RGMFTFNYMNWGKDLLRPRL, the amyloid nucleation score result is “inactive”. In turn, RGPFGLYSLDILLVSQVFRR returned an amyloid nucleation score of 0.502 ± 0.23. On to RGRGAPCARFRNVYGMPFFY, for which the amyloid nucleation score entry is “inactive”. The value for RGRYWWFYYLAFICMKWYSG was “inactive”; that for RGSWSYQILWINTVRW was -0.347 ± 0.53; that for RHELTNRREK was “inactive”.

On to RHEVRRKKSQ, for which the amyloid nucleation score result is “inactive”.

With RHEVYSTANYHVCSCRFFIV, the amyloid nucleation score stood at 0.406 ± 0.17. RHGLCFTIEAVPPPFIRWHW had an amyloid nucleation score of -0.662 ± 1.3. Substance RHGSCMTVCVYSSMLSYRST showed an amyloid nucleation score of 0.163 ± 0.31. RHLDNFNINVTLNLSFRVGM: the amyloid nucleation score turned out to be 2.52 ± 0.089. For the substance RHREAGEATTSFNFMRMSGP, the amyloid nucleation score result was “inactive”. For RHRFSTSGRYFVSIRLVSSF, the amyloid nucleation score entry was “inactive”. As to RHSLQMVRGTHSLCLWYNWV, the amyloid nucleation score entry is “inactive”. In the case of RIEAFLAP, the amyloid nucleation score came to 1.12 ± 0.18.

RILLLDTEFRLPNLPTS had an amyloid nucleation score of 1.89 ± 0.072.

Consider RILLNANRYTMPSGVYDHRA, for which the amyloid nucleation score entry is “inactive”. With RIPVSWFNWCTWVYVL, the amyloid nucleation score entry is “inactive”. For RISKA the value was “inactive”. Consider RISLDNTWGFL, for which the amyloid nucleation score entry is “inactive”. For RISSCSYHRVRVHVDTWAHV the value was “inactive”; for RIVNALTSCDLFSCGSVLRR, 1.92 ± 0.1; for RIYQRSFIWCASMESGSGPL, 0.747 ± 0.2. On to RKASSVFILGFVWWDHFEIL, for which the amyloid nucleation score result was “inactive”.

Turning to RKAYATYATDRLISSDYG, the amyloid nucleation score entry was “inactive”. In the case of RKEMLKMRRFRSRGCWVILS, the amyloid nucleation score result was “inactive”. RKFGWIRVAWCSKRIVYYSK returned an amyloid nucleation score of -0.324 ± 0.62. The value for RKNVELANPLFTSPWLNIMY was “inactive”. Regarding RKPFENIDS, the amyloid nucleation score result was “inactive”. RKRYFWNHAEISILKTSSSW: the amyloid nucleation score result is “inactive”. The value for RKSDFVIVSCYQRFGNRELN was “inactive”; that for RKVEG was “inactive”; that for RKYVTRCASMMVHHYAYDTR was “inactive”. Substance RLEGRLLCKWVCP showed an amyloid nucleation score of 1.96 ± 0.069.

RLFFNPVVVVIWPGVRNVGV: the amyloid nucleation score is 0.189 ± 0.66. Turning to RLFFVSMAF, the amyloid nucleation score result is “inactive”. For RLFRWMPDNVTGRWMVYAWF the value was “inactive”; for RLFTTLVRDLTENCIRFLWT, “inactive”. RLGLSAMSFCLCDSTSIATY: the amyloid nucleation score result is “inactive”. As to RLGSSNV, the amyloid nucleation score result was “inactive”. RLIILNVFVSDNTNWLHRIH registered an amyloid nucleation score of 1.37 ± 0.083. Regarding RLILDNHDTSFCLIHGSRMI, the amyloid nucleation score entry was “inactive”. On to RLIYHRQFFRE, for which the amyloid nucleation score entry was “inactive”.

In turn, RLLGTRSYTIWACYTCAVFM returned an amyloid nucleation score of 2.15 ± 0.088.

With RLLLGTIYSFLKLHGDFNGR, the amyloid nucleation score result was “inactive”. RLLLMIL: the amyloid nucleation score entry was “inactive”. Regarding RLMDITL, the amyloid nucleation score entry is “inactive”. Regarding RLMYKMMHVSGDEECLFVMV, the amyloid nucleation score entry was “inactive”. For the substance RLNVYTYAKFRRHRCKATSW, the amyloid nucleation score result was “inactive”. The value for RLNWGFTLA was “inactive”; that for RLPLPL was “inactive”. As to RLRFLRT, the amyloid nucleation score entry was “inactive”.

Consider RLRRSGVKWVVLKGGTRTWQ, for which the amyloid nucleation score entry is “inactive”. Turning to RLRSNDSDLNRIAAIKVRGI, the amyloid nucleation score result is “inactive”. For RLRVG the value was “inactive”; for RLRVM, “inactive”. On to RLSAPCCWYNTLIE, for which the amyloid nucleation score was found to be 1.96 ± 0.099. Turning to RLSEFGVNVAQMWATVVTSL, the amyloid nucleation score entry was “inactive”.

Turning to RLSHTMCRVLCHWVMSYSVS, the amyloid nucleation score result is “inactive”. As to RLTACASYIGINGRSRN, the amyloid nucleation score entry was “inactive”. With RLTRVVIMQRFIGEVRLSAL, the amyloid nucleation score result is “inactive”. As for RLVFNLGGYFLKWCIDCFIR, the amyloid nucleation score result is “inactive”. In turn, RLVLRDPTSTVIVRVPLGFV had an amyloid nucleation score of -0.547 ± 1.9. For RMAIISSRIWFGFLAMQFVF the value was “inactive”; for RMDADI, “inactive”; for RMDWWYSGCLFMRYPALTAL, “inactive”. Take RMFKFGTCYKSVGPTKRAEC: the amyloid nucleation score entry was “inactive”. Take RMHDSCFLYGISEDRDSLGN: the amyloid nucleation score result is “inactive”. For the substance RMINVSVR, the amyloid nucleation score result is “inactive”. For the substance RMKFGADIAVVHVCPMEFSG, the amyloid nucleation score result was “inactive”. Consider RMPRQGLWMRVF, for which the amyloid nucleation score result was “inactive”. On to RMRSWMGCGRHCLWRHLEEL, for which the amyloid nucleation score entry is “inactive”. As for RMRYFDVYIWSDMRNEPGGL, the amyloid nucleation score entry is “inactive”. In the case of RMTMRRSSWQVEGITSLRIL, the amyloid nucleation score result is “inactive”. For RMYACSWGKSDLSCLMSFGK the value was “inactive”; for RMYRGWLVPDAARSKGCRVM, “inactive”. The value for RNCLIYGHNDILGISRLSDF was “inactive”; that for RNEWCFSKPILEYHCRMDVF was “inactive”; that for RNFARCRFNPPMTHHSFFNT was “inactive”. On to RNFMSFRWPVLKLQRRVP, for which the amyloid nucleation score entry was “inactive”.

On to RNIYM, for which the amyloid nucleation score entry is “inactive”. For RNLSLDLT, the amyloid nucleation score result is “inactive”.

In turn, RNMNLLSMHIGLISLFSGEL yielded an amyloid nucleation score of 1.81 ± 0.056. As to RNNVMYVGYEGI, the amyloid nucleation score entry was “inactive”.

Take RNRLN: the amyloid nucleation score result is “inactive”. RNTGKAVHFCNRVYDSSMSM displayed an amyloid nucleation score of -0.1 ± 0.6. For RNWCSLNNLFYPWV, the amyloid nucleation score worked out at 1.78 ± 0.12. For the substance RNYFMVLGRKYVFLFFWMMM, the amyloid nucleation score result was “inactive”. RPAVLGPAFRYSSLAP: the amyloid nucleation score entry is “inactive”. Consider RPFGLAVTRWAPSFAGSRTS, for which the amyloid nucleation score entry was “inactive”. As for RPFSNAGYAFNHGFFV, the amyloid nucleation score entry is “inactive”.

With RPMRDCIGHSQS, the amyloid nucleation score entry is “inactive”.
